From the supplement of paper PMC9170038

Tests used:
MS2 coat protein [1] = experiment: apparent KD of MS2 coat protein, switch ON state; designed switch direction (-1 OFF switch, 1 ON switch): -1; higher = weaker reporter binding; details: FMN input: 0 or 200 uM; Eterna round: R93 (includes R88 designs)
Outline: (§1)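 Illumina sequencing clusters served as templates for on-chip transcription of the designed RNA switches. SNAP-549-labelled MS2 coat protein was then titrated in twofold steps from 0.7 or 1.5 nM to 3 µM, allowing 0.8–1.5 h per step at first and 10–20 min per step later. The buffer held 100 mM Tris-HCl pH 7.5, 80 mM KCl and 4 mM MgCl2, without or with constant ligand. Apparent KD is the median per design of normalised cluster binding-curve fits.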

MS2 coat protein [2] = experiment: apparent KD of MS2 coat protein, switch OFF state (with FMN for OFF switches, without FMN for ON switches); designed switch direction (-1 OFF switch, 1 ON switch): -1; higher = weaker reporter binding; details: FMN input: 0 or 200 uM; Eterna round: R93 (includes R88 designs)
Outline: as §1

Row | Sequence | apparent KD of MS2 coat protein (MS2 coat protein [1]) | apparent KD of MS2 coat protein (MS2 coat protein [2])
1 | AAGAGGUCAGGAUAUGCCCACCAGGAAAAACGUCCAGGUGGGCAGAAGGGACAUGAGGAUCACCCAUGUAAAGA [Opal 41] | 44.8 nM | 114 nM
2 | AAGAGGUGAGGAUAUCGAAGAAGAAGAAGAAGAAGAAGAAACGAGAAGGCACAUGAGGAUCACCCAUGUAAGAA [Exclusion 4] | 23.4 nM | 18.8 nM
3 | AAGAGUAGAGGAUAUACAUGAGGAUCACCCAUGUAAUCCGGAUAAGGAAGCAUGUCGUGUAGAAGGCUGCAUGA [MOD 3 of Nando (MS2 Riboswitches- Exclusion 3)] | 15.5 nM | 14.1 nM
4 | AAGAUCAGAGGAUAUACAUAAGGUGAUGGAAACAUCGCCAAACAUGAGGAUCACCCAUGUAGAAGGCUGAUCAA [Mat - Exclusion 2 - JL mod - D61] | 35.7 nM | 43.7 nM
5 | AAGGGACAUGAGGAUCACCCAUGUCAGGAUAUGAUGCGAAUAAAGAAAGAAGAAAGCAUCAGAAGGGACGCCAA [58%, Disencluded 3, 5] | 25.4 nM | 39.5 nM
6 | AAGGGACAUGAGGAUCACCCAUGUCAGGAUAUGAUGCGAAUAAAGAAAGAAGAAAGCAUCAGAAGGGACGCCUA [58%, Disencluded 3, 6] | 19.3 nM | 27.6 nM
7 | AAGGGACAUGAGGAUCACCCAUGUCAGGAUAUGCGAAAAAAAAAAAUAAAAAAAAAAAGCAGAAGGGACACCAA [Mat - Exclusion 1 - Eli mod - D58] | 104 nM | 102 nM
8 | AAGUACUCAGGAUAUACAUGAGGAUCACCCAUGUGAAAAAAGCGUAAAAAACGCACAUGUAGAAGGGAGUACAA [JL In thr Red Again] | 122 nM | 333 nM
9 | AAGUUAUUAGGAUAUACUAGUGCAAUUAAUACGCUGAUAGUACAUGAGGAUCACCCAUGUAGAAGGAAUAAAAA [Mat - Exclusion 2 - JL mod - D66] | 30.5 nM | 20.6 nM
10 | AAGUUAUUAGGAUAUACUAGUGCGAUUAAUACGCUGAUAGUACAUGAGGAUCACCCAUGUAGAAGGAAUAAAAA [JR_Exc002_Sub409] | 35.1 nM | 19.1 nM
11 | AAGUUAUUAGGAUAUACUUGUGCGAUUAAUACGCUGAUAGUACAUGAGGAUCACCCAUGUAGAAGGAAUAAAAA [JR_Exc002_Sub410] | 33.4 nM | 21.2 nM
12 | AAUAAACAUGAGGAUCACCCAUGUCAGGAUAUGCACAAACAAACAAACAAACAAGCAAGCAGAAGGGACACUAC [Amethyst 88] | 25.4 nM | 28.6 nM
13 | AAUAAAGGAGGAUAUACUAAAGAAAUGAAAAGAAAUAAAGAACAUGAGGAUCACCCAUGUAGAAGGCCUAAUAA [Yaqub-Har] | 31.3 nM | 22.8 nM
14 | AAUAAGACAGGAUAUACUAAAGAAAUGAAAAGAAAUAAAGAACAUGAGGAUCACCCAUGUAGAAGGGUCAAUAA ['Apepi] | 50.3 nM | 32.4 nM
15 | AAUAAGUGAGGAUAUGGAAAUAGUAGAUAAGAUACCCUAAACCAGAAGGCACAUGAGGAUCACCCAUGUAAAUA [JR_Exc004_Sub004] | 32.7 nM | 23.7 nM
16 | AAUAAGUGAGGAUAUGUAAAUAGUAGAUAAGAUUCCCUAAAACAGAAGGCACAUGAGGAUCACCCAUGUAAAUA [JR_Exc004_Sub007] | 25.9 nM | 19.7 nM
17 | ACAAAUGUAGGAUAUACAUGAGGAUCACCCAUGUGGCAGAAACAGCAAACAAGACGAAGUAGAAGGACAACGAC [JR_Exc003-Sub902] | 29.1 nM | 28.6 nM
18 | ACAGUUACAGGAUAUACAAGGGUAACUUCAAAUAAACCUCUACAUGAGGAUCACCCAUGUAGAAGGGUAACUGA [Ex2 Design 200 (maybe): Random 16] | 22.8 nM | 21.7 nM
19 | ACAGUUAGAGGAUAUACGUGGAAAAAUAAAAAUAAAAAACUACAUGAGGAUCACCCAUGUAGAAGGCUAACUGA [Ex2 Design 196: Random 12E] | 24.8 nM | 66.1 nM
20 | ACCAGACAUGAGGAUCACCCAUGUCAGGAUAUAGUAUGAAAAAAAAAAAAAAAAAAUACUAGAAGGGACAAGGG [Design 14: Super Stable Short Helix 5] | 29.7 nM | 63.8 nM

Row | Sequence | apparent KD of MS2 coat protein (MS2 coat protein [1]) | apparent KD of MS2 coat protein (MS2 coat protein [2])
21 | ACGUUGAGAGGAUAUACGAACAUGUCAAAAGACGUGAAGGGACAUGAGGAUCACCCAUGUAGAAGGCUCAACGA [Mat - Exclusion 2 - JL mod - D9] | 46.3 nM | 186 nM
22 | AGAAACUGAGGAUAUACUUUGGGAAAAGAAAAGAUGAUGUUACAUGAGGAUCACCCAUGUAGAAGGCAGAAAGA [Mat - Exclusion 2 - Mod - D152] | 25.5 nM | 30.3 nM
23 | AGAAAGUCAGGAUAUACGAAAAAGAAAAAAGACGAGAACGGACAUGAGGAUCACCCAUGUAGAAGGGACAAGAA [Diamond 14] | 66.4 nM | 51.4 nM
24 | AGAAAGUCAGGAUAUACGAAUAAGAAUAAAGACGAGAUCGGACAUGAGGAUCACCCAUGUAGAAGGGACAAGAA [Diamond 17] | 121 nM | 74.7 nM
25 | AGAACACAUGAGGAUCACCCAUGUCAGGAUAUUCAAACAAAAACAAAACAAAACAAACGAAGAAGGGACAAAAG [May 2] | 32.3 nM | 36 nM
26 | AGAUGACAUGAGGAUCACCCAUGUAAGGAUAUACGAGUAGGAGAAUAAAAUGAUAGAAGUAGAAGGUACGUAGA ['Exclusion 1' Lab (2)] | 68 nM | 58.1 nM
27 | AGCAAGUGAGGAUAUCUGGAUAGGAAAAAGAAAACCUAUCCAGAGAAGGCACAUGAGGAUCACCCAUGUAAAAA [JL cataway mod 7] | 39.1 nM | 41.4 nM
28 | AGCUACUGAGGAUAUACGAACAUGUCAAAAGACGUAAGGGAACAUGAGGAUCACCCAUGUAGAAGGCAGUAGCA [Diamond 49] | 44.5 nM | 91.9 nM
29 | AGCUAGUCAGGAUAUACGAAAAUGCUAGAAGACGUAAGGGAACAUGAGGAUCACCCAUGUAGAAGGGACUAGCA [Diamond 46] | 21.9 nM | 30.4 nM
30 | AGCUAGUCAGGAUAUACGAACAAGAAAAAAGACGAGAACGGACAUGAGGAUCACCCAUGUAGAAGGGACUAGCA [Diamond 9] | 23.8 nM | 26.3 nM
31 | AGCUAGUGAGGAUAUACAAGAAUAUAAACGAACAUAAAGGGACAUGAGGAUCACCCAUGUAGAAGGCACUAGCA [Diamond 73] | 42.6 nM | 152 nM
32 | AGCUAGUGAGGAUAUACGAACAUGUCAAAAGACGUGAAGGGACAUGAGGAUCACCCAUGUAGAAGGCGCUAGCA [JL 74% mod] | 53.4 nM | 157 nM
33 | AGCUGGUCAGGAUAUGCGUGAAGAAUAAAACAAAUAACAACGCAGAAGGGACAUGAGGAUCACCCAUGUCAGCA [May 50] | 23.9 nM | 20.3 nM
34 | AGGAAACAUGAGGAUCACCCAUGUCAGGAUAUACAAAAGAAAAGAAAAGAAAGAAGAAGUAGAAGGGACACGAA [Double Falcon] | 25.1 nM | 22.5 nM
35 | AGGAAACAUGAGGAUCACCCAUGUGAGGAUAUUGAAAAGAAAAGAAAAGAAAGAAGAACAAGAAGGUACAAGAA [Nyuserre Ini] | 22.3 nM | 27.3 nM
36 | AGGUGACAUGAGGAUCACCCAUGUCAGGAUAUAUACACCACCGGCGUGAAGCCGGCGGAUAGAAGGGACAAAAU [Anesar] | 15.6 nM | 18.2 nM
37 | AGUAUGCGAGGAUAUACAUGAGGAUCACCCAUGUGAGAGAUAAAAGUGAGAAAGAAAAGUAGAAGGCGCGUACA [JL Lego Mod 21] | 50.7 nM | 326 nM
38 | AGUAUGCGAGGAUAUACAUGAGGAUCACCCAUGUGAGAGAUAAGAGUGAGAAAGACAAGUAGAAGGCGCGUACA [JL Lego Mod 25] | 78.4 nM | 71.7 nM
39 | AGUCAUACAGGAUAUACAUGAGGAUCACCCAUGUAAAUCCUAAAAAAGUGAUCCUCAUGUAGAAGGGUAUGACA [EX3 220: Super Stable 20] | 19.1 nM | 19.7 nM
40 | AGUCUGAGAGGAUAUACAUGAAAAAAAAAAGUAAGAUCCCUACAUGAGGAUCACCCAUGUAGAAGGCUCUGACA [Ex2 Design 145: Sub-opt 9] | 31.4 nM | 29.4 nM
